Source: patent publication US12617870B2, “Methods of reversing ticagrelor activity” (SFJ Pharmaceuticals X, LTD., priority 2018, dated 2026)
Several values for one entry are separate records, joined by “and”; a condition that tells them apart may be missing. Equal entries are not always repeated. Entries after “also recorded” stand apart in the source; their conditions may differ.

What was measured:
[1] = tested on: platelet aggregation (ticagrelor antiplatelet activity); format: in vivo, human
Procedure: Platelet function was assessed using light transmission aggregometry (LTA), VerifyNow, and vasodilator stimulated phosphoprotein (VASP) assays before and after 48 hours of ticagrelor administration […] Cohorts 7 to 10 received an 18-gram fixed dose of PB2452 via various infusion regimens or placebo. Infusions of PB2452 in these cohorts were initiated 2 hours after the last ticagrelor pretreatment dose to coincide with the peak concentration of ticagrelor. (Gurbel (2009). Subjects in all cohorts were randomized in a 3:1 ratio to receive PB2452 or placebo. The primary efficacy outcome was the effectiveness of PB2452 in reversing the antiplatelet effect of ticagrelor by analyzing platelet aggregation using light transmission aggregometry at multiple time points before and after PB2452 or placebo administration in ticagrelor pretreated subjects. Secondary efficacy outcomes were the effectiveness of ticagrelor reversal assessed using VerifyNow and the vasodilator stimulated phosphoprotein phosphorylation immunoassay (VASP). The sample size of 64 was based on clinical and practical considerations and not on a formal statistical power calculation. The sample size was considered sufficient to adequately assess the safety, efficacy, and pharmacokinetic profiles of PB2452 and the pharmacokinetic and pharmacodynamic profiles of ticagrelor. Reversal of antiplatelet effect was evaluated by comparing the mean percent of baseline platelet aggregation between PB2452 and placebo using Wilcoxon rank-sum test. Multiplicity was adjusted using the Bonferroni method. Correlations between each pair of the platelet function tests were evaluated using Pearson's correlation and Spearman's rank correlation coefficient. Mean data from subjects receiving placebo were pooled across cohorts for all presentations. Categorical variables are summarized by their frequencies and percentages, and continuous variables are presented with the number of subjects with non-missing data, mean, standard deviation, median, minimum, and maximum. Descriptive statistics are presented for each cohort, and pooled placebo and PB2452 data. For pharmacodynamic data, platelet aggregation results were compared between each cohort and pooled placebo data (cohorts 4 to 6 and cohort 7 to 10 were pooled separately). All analyses were performed with SAS software, version 9.4 (SAS Institute).

[2] = tested on: platelet reactivity (VerifyNow P2Y12); test: Phase 1 healthy volunteer study: VerifyNow P2Y12 platelet reactivity (PRU); format: in vivo, human; conditions: sustained for 24 hours
Text: Secondary Objectives: 1) To determine the pharmacokinetics of ascending doses of IV PB2452 in the presence and absence of ticagrelor; 2) To determine the pharmacokinetics of ticagrelor and its active metabolite TAM in the presence and absence of PB2452; 3) To assess the effectiveness of a single IV PB2452 dose in reversing ticagrelor antiplatelet activity by measuring P2Y12 reaction units (PRU) with VerifyNow™ P2Y12 assay and platelet reactivity index (PRI) with vasodilator stimulated phosphoprotein (VASP) phosphorylation assay by enzyme-linked immunosorbent assay (ELISA); 3) To evaluate the pharmacokinetics and pharmacodynamics of restarting a single dose of oral ticagrelor 24 hours after IV PB2452 administration if a sixth dose of ticagrelor is given; 4) To evaluate the immunogenicity potential of PB2452 […]
(§1) The primary efficacy outcome was the effectiveness of PB2452 in reversing the antiplatelet effect of ticagrelor by analyzing platelet aggregation using light transmission aggregometry at multiple time points before and after PB2452 or placebo administration in ticagrelor pretreated subjects. Secondary efficacy outcomes were the effectiveness of ticagrelor reversal assessed using VerifyNow and the vasodilator stimulated phosphoprotein phosphorylation immunoassay (VASP).

[3] = Phase 1 healthy volunteer study: safety, treatment-emergent adverse events; format: in vivo, human
Text: Safety Assessments: Safety and tolerability will be assessed by monitoring and recording of AEs, clinical laboratory test results (hematology, coagulation, serum chemistry, and urinalysis), vital sign measurements (systolic and diastolic blood pressures, oral body temperature, respiratory rate, and heart rate), 12-lead ECG results, cardiac telemetry monitoring, immunogenicity, and physical examination findings.
(§2) The primary safety outcome was the frequency and severity of treatment emergent adverse events (AEs) associated with PB2452 with or without oral ticagrelor pretreatment. Clinical laboratory test results, vital sign measurements, 12-lead ECG and continuous telemetry results, and physical examination findings were also assessed at multiple timepoints from screening to the end of the 28-day safety follow-up period. Immunogenicity was assessed before and at 7 and 28 days after PB2452 administration.

[4] = Phase 1 healthy volunteer study: immunogenicity (anti-drug antibodies); format: in vivo, human
Procedure: as §2
Other secondary outcomes included assessment of the PB2452 and ticagrelor pharmacokinetic profiles and evaluation of PB2452 immunogenicity at day 7 and 28 post-infusion.

[5] = Phase 1 healthy volunteer study: pharmacokinetics of PB2452; format: in vivo, human
Procedure: Plasma Collection: Blood samples for PK analysis of PB2452 in plasma will be collected from all subjects at the following time points: before dosing (within 10 minutes prior to the initiation of study drug infusion and up to 28 days after the initiation of study drug infusion. Specific collection times for each cohort are listed in the table below: […]

P2Y12 receptor signaling = test: Phase 1 healthy volunteer study: VASP phosphorylation ELISA (PRI); conditions: human, in vivo
Text: Secondary Objectives: 1) To determine the pharmacokinetics of ascending doses of IV PB2452 in the presence and absence of ticagrelor; 2) To determine the pharmacokinetics of ticagrelor and its active metabolite TAM in the presence and absence of PB2452; 3) To assess the effectiveness of a single IV PB2452 dose in reversing ticagrelor antiplatelet activity by measuring P2Y12 reaction units (PRU) with VerifyNow™ P2Y12 assay and platelet reactivity index (PRI) with vasodilator stimulated phosphoprotein (VASP) phosphorylation assay by enzyme-linked immunosorbent assay (ELISA); 3) To evaluate the pharmacokinetics and pharmacodynamics of restarting a single dose of oral ticagrelor 24 hours after IV PB2452 administration if a sixth dose of ticagrelor is given; 4) To evaluate the immunogenicity potential of PB2452
VASP by ELISA: 1) PRU at each assessment point; 2) Percent of baseline in PRU; 3) Maximal PRU; 4) Time to maximal PRU; 5) Time to 60%, 80%, 90% of baseline PRU
as §1

[6] = of the 48 subjects given PB2452

B1: PB2452: recombinant human IgG1λ monoclonal Fab antibody fragment that binds specifically to ticagrelor and TAM (antibody, listed as Homo sapiens)
heavy: QVQLQESGAEVKKPGSSVRVSCKASGGTFDSYSIHWVRQAPGQGLEWMGGIIPAFGTLSSAQDFQARVTISADKSTSTAYMELSGLRSEDTAVYYCARGSFDYYFWSASHPPNDALAIWGQGTLVTVSSASTKGPSVFPLAPSSKSTSGGTAALGCLVKDYFPEPVTVSWNSGALTSGVHTFPAVLQSSGLYSLSSVVTVPSSSLGTQTYICNVNHKPSNTKVDKRVEPKSCDK
light: QSVVTQPPSVSAAPGQKVTISCSGSNSDIGNNYVSWYQQLPGTAPKLLIYDNNKRPSGIPDRFSGSKSGTSATLAITGLQAGDEADYYCGTWLYDRAVGLFGGGTKVTVLGQPKAAPSVTLFPPSSEELQANKATLVCLISDFYPGAVTVAWKADSSPVKAGVETTTPSKQSNNKYAASSYLSLTPEQWKSHRSYSCQVTHEGSTVEKTVAPTECS
modifications: PB2452 VH with CH1; PB2452 VL with CL
[1]; 3 g or 9 g PB2452 IV over 30 minutes
  time to complete restoration of platelet function: ≤ 30 min
[1]; 10-minute IV bolus followed by 16-hour infusion, multiple assays
  reversal sustained for: over 20 hours
[1]; 10-minute IV bolus followed by 16-hour infusion, multiple assays, vs placebo P<0.0001
  onset of reversal: ≤ 5 min
[1]; Cohort 7, 18 g: 3.0 g bolus followed by 8 hour infusion
  time to significantly increased mean platelet aggregation: ≤ 2 h
[1]; Cohorts 8 to 10, 18 g: 6.0 g bolus followed by infusions for 12 or 16 hours
  time to reversal after initiation of the infusion: ≤ 5 min
[1]; LTA, all post-treatment time points up to 20 hours
  mean platelet aggregation restored, relative to pre-ticagrelor baseline: ≥ 80 % of baseline
[1]; human, in vivo
  rebound in platelet activity after drug cessation: no evidence of rebound
[2]
  mean VerifyNow platelet reactivity: ≥ 180 PRU
[3]; 0.1 to 18 g IV, healthy subjects
  overall safety and tolerability: safe and well-tolerated
[3]; All PB2452 (N = 48)
  Number of Subjects with at Least 1 TEAE: 17 (35.4%) n (%) and 17 (35.4) n (%)
  Total Number of TEAEs: 27
[3]; TEAE, All PB2452 (N = 48)
  Abdominal pain: 1 (2.1) n (%)
  Acute respiratory failure: 1 (2.1) n (%)
  Alcohol poisoning: 1 (2.1) n (%)
  Blood urine present: 1 (2.1) n (%)
  Conjunctivitis: 1 (2.1) n (%)
  Contusion: 0 n (%)
  Dizziness: 1 (2.1) n (%)
  Eyelid irritation: 0 n (%)
  Gastroenteritis: 1 (2.1) n (%)
  Hematuria: 1 (2.1) n (%)
  Infusion site bruising: 4 (8.3) n (%)
  Infusion site extravasation: 2 (4.2) n (%)
  Infusion site reaction: 1 (2.1) n (%)
  Medical device site reaction: 3 (6.3) n (%)
  Musculoskeletal chest pain: 0 n (%)
  Nasopharyngitis: 1 (2.1) n (%)
  Oropharyngeal pain: 1 (2.1) n (%)
  Pharyngitis streptococcal: 1 (2.1) n (%)
  Pneumonia aspiration: 1 (2.1) n (%)
  Skin abrasion: 1 (2.1) n (%)
  Upper limb fracture: 1 (2.1) n (%)
  Vessel puncture site bruise: 2 (4.2) n (%)
[3]; human, in vivo
  deaths or adverse events leading to study drug discontinuation: no deaths or adverse events leading to study drug discontinuation
  drug-related adverse events: no drug-related adverse events; also recorded: None of the adverse events was considered related to study drug
  study-drug related serious adverse events, dose-limiting toxicities, infusion-related reactions: no study-drug related serious adverse events, dose-limiting toxicities, or infusion-related reactions; also recorded: no serious adverse events or infusion reactions associated with PB2452
[4]; human, in vivo
  effect of antibody titers on PB2452 safety or efficacy: no observed effect
[4]; [6]
  subjects anti-drug antibody positive post-dosing: 6 (12.5%) subjects (%)
  subjects with detectable anti-drug antibodies: 21 (43.8%) subjects (%)
  subjects with pre-existing (pre-dose) antibodies: 15 (31.3%) subjects (%)
[5]; 18 gram dose level with 8- to 16-hour infusions
  PB2452 exposure extended for: 12 to 24 h
[5]; IV, healthy subjects
  estimated distribution half-life: 0.86 h
  estimated terminal half-life: 6.9 h
  volume of distribution: approximately 2.9 L
[5]; dose range of 0.1 to 9.0 grams
  dose dependence of mean exposure: dose-linear increases in mean exposure
P2Y12 receptor signaling
  VASP PRI restored, relative to baseline: ~100 % of baseline
  duration of restored VASP PRI: 20 to 24 h
  time to restoration of VASP PRI: ≤ 5 min
